Where a chain is given by its changes, count along the chain named.
T1: human GM-CSFRα, full length on cells (human, UniProt P15509 23-400)
T1 sequence: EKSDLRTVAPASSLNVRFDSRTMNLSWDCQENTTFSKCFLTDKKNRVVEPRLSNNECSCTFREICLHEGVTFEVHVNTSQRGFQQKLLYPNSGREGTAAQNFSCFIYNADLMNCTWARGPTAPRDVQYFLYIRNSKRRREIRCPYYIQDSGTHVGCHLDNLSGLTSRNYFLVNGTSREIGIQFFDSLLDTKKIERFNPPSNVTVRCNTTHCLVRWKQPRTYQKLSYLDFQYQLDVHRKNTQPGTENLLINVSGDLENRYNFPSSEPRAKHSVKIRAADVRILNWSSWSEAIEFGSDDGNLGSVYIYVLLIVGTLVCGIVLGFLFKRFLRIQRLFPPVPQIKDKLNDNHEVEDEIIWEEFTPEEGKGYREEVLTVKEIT

B1: E35-scFv LY32N (scFv, V domains shown)
VH: QMQLVQSGAEVKKPGASVKVSCKVSGYTLTELSIHWVRQAPGKGLEWMGGFDPEDGETIYAQKFQGRVTMTGDTSTDTAYLELSSLRSEDTALYYCATGRYTSLATTYGFDYWGQGTLVTVSS
VL: EIVMTQSPATLSLSPGERATLSCRASQSVSSNLAWYQQKPGQAPRLLIYGASSRATGIPDRFSGSGSGTDFTLTISRLEPEDFAVYYCQQYDNWPYTFGQGTKLEIK
B2: E35-scFv LS52Q (scFv, V domains shown)
VH: B1 VH
VL: B1 VL with N32Y, S52Q
B3: E35-scFv LA51C (scFv, V domains shown)
VH: B1 VH
VL: B1 VL with N32Y, A51C
B4: E35-scFv LY32P (scFv, V domains shown)
VH: B1 VH
VL: B1 VL with N32P
B5: E35-scFv LA51P (scFv, V domains shown)
VH: B1 VH
VL: B1 VL with N32Y, A51P
B6: E35-scFv LA51K (scFv, V domains shown)
VH: B1 VH
VL: B1 VL with N32Y, A51K
B7: E35-scFv LS52R (scFv, V domains shown)
VH: B1 VH
VL: B1 VL with N32Y, S52R
B8: E35-scFv LS52D (scFv, V domains shown)
VH: B1 VH
VL: B1 VL with N32Y, S52D
B9: E35-scFv LA51G (scFv, V domains shown)
VH: B1 VH
VL: B1 VL with N32Y, A51G
B10: E35-scFv LS52P (scFv, V domains shown)
VH: B1 VH
VL: B1 VL with N32Y, S52P
B11: E35-scFv LA51Q (scFv, V domains shown)
VH: B1 VH
VL: B1 VL with N32Y, A51Q
B12: E35-scFv LY32K (scFv, V domains shown)
VH: B1 VH
VL: B1 VL with N32K
B13: E35-scFv LS52F (scFv, V domains shown)
VH: B1 VH
VL: B1 VL with N32Y, S52F
B14: E35-scFv LA51V (scFv, V domains shown)
VH: B1 VH
VL: B1 VL with N32Y, A51V
B15: E35-scFv LA51F (scFv, V domains shown)
VH: B1 VH
VL: B1 VL with N32Y, A51F
B16: E35-scFv LA51R (scFv, V domains shown)
VH: B1 VH
VL: B1 VL with N32Y, A51R
B17: E35-scFv LY32R (scFv, V domains shown)
VH: B1 VH
VL: B1 VL with N32R
B18: E35-scFv LA51E (scFv, V domains shown)
VH: B1 VH
VL: B1 VL with N32Y, A51E
B19: E35-scFv LS52T (scFv, V domains shown)
VH: B1 VH
VL: B1 VL with N32Y, S52T
B20: E35-scFv LA51N (scFv, V domains shown)
VH: B1 VH
VL: B1 VL with N32Y, A51N
B21: E35-scFv LS52Y (scFv, V domains shown)
VH: B1 VH
VL: B1 VL with N32Y, S52Y
B22: E35-scFv LA51L (scFv, V domains shown)
VH: B1 VH
VL: B1 VL with N32Y, A51L
B23: E35-scFv LA51S (scFv, V domains shown)
VH: B1 VH
VL: B1 VL with N32Y, A51S
B24: E35-scFv LS52L (scFv, V domains shown)
VH: B1 VH
VL: B1 VL with N32Y, S52L
B25: E35-scFv LS52N (scFv, V domains shown)
VH: B1 VH
VL: B1 VL with N32Y, S52N
B26: E35-scFv LA51W (scFv, V domains shown)
VH: B1 VH
VL: B1 VL with N32Y, A51W
B27: E35-scFv LA51H (scFv, V domains shown)
VH: B1 VH
VL: B1 VL with N32Y, A51H
B28: E35-scFv LS52W (scFv, V domains shown)
VH: B1 VH
VL: B1 VL with N32Y, S52W
B29: E35-scFv LA51M (scFv, V domains shown)
VH: B1 VH
VL: B1 VL with N32Y, A51M
B30: E35-scFv LS52A (scFv, V domains shown)
VH: B1 VH
VL: B1 VL with N32Y, S52A
B31: E35-scFv LS52H (scFv, V domains shown)
VH: B1 VH
VL: B1 VL with N32Y, S52H
B32: E35-scFv LA51T (scFv, V domains shown)
VH: B1 VH
VL: B1 VL with N32Y, A51T
B33: E35-scFv LY32E (scFv, V domains shown)
VH: B1 VH
VL: B1 VL with N32E

biological target: T1, human GM-CSFRα, full length on cells; assay: cell-based or functional assay

Binder | IC50, TF-1 cell proliferation [µg/mL]
B1 | 2.05
B2 | 0.138
B3 | 0.37
B4 | 5.15
B5 | 2.1
B6 | 0.168
B7 | 0.089
B8 | 1.75
B9 | 0.12
B10 | 1.05
B11 | 18.2
B12 | 9.6
B13 | 0.167
B14 | 0.36
B15 | 0.294
B16 | 0.12
B17 | 3.12

Binder | IC50, TF-1 cell proliferation [µg/mL]
B18 | 0.81
B19 | 0.136
B20 | 0.36
B21 | 0.181
B22 | 0.5
B23 | 0.18
B24 | 0.115
B25 | 0.253
B26 | 1.59
B27 | 0.162
B28 | 0.073
B29 | 0.264
B30 | 0.068
B31 | 0.192
B32 | 0.18
B33 | 3.75

From patent publication US20230002496A1 (STAIDSON BEIJING BIOPHARMACEUTICALS, published 2023)
